Test results published in the Human Domainome abundance scans (Beltran et al. 2025).
± gives the uncertainty stated by the source.

B1: Chromodomain-helicase-DNA-binding protein 4, residues 365 to 417; numbered along this chain, Q14839 (parent)
chain: YETDHQDYCEVCQQGGEIILCDTCPRAYHMVCLDPDMEKAPEGKWSCPHCEKE

Variants of: B1
Assay: abundance fitness (aPCA) (normalised: wild type 0, dead -1); higher = more abundant; growth selection in yeast, the domain comes from the species named
Conditions: Homo sapiens

Variant	abundance fitness
K44Y	-0.31 ± 0.18
K44N	-0.373 ± 0.29
K44L	-0.145 ± 0.1
K44A	-0.017 ± 0.15
K44H	-0.3 ± 0.21
K44V	-0.109 ± 0.11
K44F	-0.028 ± 0.16
K44T	0.218 ± 0.15
K44E	0.079 ± 0.14
K44I	-0.427 ± 0.3
K44R	0.05 ± 0.097
K44G	0.164 ± 0.095
K44M	-0.066 ± 0.12
K44P	0.062 ± 0.14
K44C	-0.152 ± 0.14
K44S	0.102 ± 0.11
K44Q	0.309 ± 0.13
K44W	0.098 ± 0.12
R26F	-0.288 ± 0.14
R26H	-0.273 ± 0.23
R26T	-0.191 ± 0.12
R26A	-0.137 ± 0.11
R26I	-0.014 ± 0.15
R26W	-0.791 ± 0.15

Variant	abundance fitness
R26L	-0.231 ± 0.1
R26K	-0.065 ± 0.17
R26P	-0.348 ± 0.17
R26C	-0.462 ± 0.16
R26D	-0.249 ± 0.17
R26S	-0.134 ± 0.11
R26Y	-0.413 ± 0.21
R26M	0.183 ± 0.14
R26G	-0.112 ± 0.094
R26E	-0.356 ± 0.17
R26V	-0.226 ± 0.1
P35V	-0.04 ± 0.098
P35E	-0.345 ± 0.15
P35M	-0.054 ± 0.16
P35K	-0.374 ± 0.18
P35A	-0.016 ± 0.097
P35S	0.125 ± 0.11
P35N	-0.023 ± 0.26
P35H	-0.001 ± 0.33
P35C	-0.1 ± 0.15
P35T	0.054 ± 0.14
P35Y	0.272 ± 0.26
P35L	-0.191 ± 0.1
P35Q	-0.284 ± 0.22

Variant	abundance fitness
P35W	-0.236 ± 0.13
P35G	0.038 ± 0.089
P35R	0.029 ± 0.1
E38R	-0.029 ± 0.1
E38N	-0.183 ± 0.26
E38P	-0.143 ± 0.13
E38D	-0.074 ± 0.15
E38C	-0.028 ± 0.11
E38F	0.142 ± 0.18
E38S	-0.266 ± 0.11
E38Q	-0.19 ± 0.2
E38M	-0.784 ± 0.21
E38A	-0.261 ± 0.11
E38L	-0.197 ± 0.11
E38K	-0.244 ± 0.18
E38W	-0.281 ± 0.14
E38V	-0.063 ± 0.11
E38Y	-0.093 ± 0.25
E38G	-0.056 ± 0.082
E38T	-0.657 ± 0.22
E38I	-0.106 ± 0.18
E38H	-0.079 ± 0.26
K39A	-0.06 ± 0.14
K39Y	-0.077 ± 0.17

Variant	abundance fitness
K39G	0.008 ± 0.096
K39E	-0.077 ± 0.13
K39N	-0.264 ± 0.23
K39M	0.115 ± 0.16
K39T	-0.217 ± 0.15
K39I	-0.125 ± 0.18
K39R	-0.082 ± 0.093
K39H	-0.237 ± 0.28
K39S	-0.203 ± 0.1
K39Q	-0.323 ± 0.18
K39C	-0.347 ± 0.12
K39W	-0.172 ± 0.11
K39P	-0.094 ± 0.15
K39V	0.1 ± 0.11
K39F	-0.472 ± 0.15
K39L	-0.132 ± 0.1
Y28W	0.086 ± 0.12
Y28I	-0.295 ± 0.14
Y28V	-0.05 ± 0.096
Y28Q	-0.395 ± 0.14
Y28N	-0.403 ± 0.18
Y28E	-0.649 ± 0.12
Y28S	-0.271 ± 0.098
Y28D	-0.526 ± 0.19

Variant	abundance fitness
Y28F	0.012 ± 0.16
Y28L	-0.073 ± 0.098
Y28H	0.023 ± 0.22
Y28M	0.048 ± 0.12
Y28P	-0.704 ± 0.14
Y28T	-0.284 ± 0.14
Y28C	-0.582 ± 0.16
Y28K	-0.267 ± 0.16
Y28R	-0.254 ± 0.094
M30T	0.077 ± 0.16
M30G	-0.126 ± 0.086
M30Q	-0.287 ± 0.17
M30R	-0.266 ± 0.099
M30H	-0.433 ± 0.2
M30K	0.115 ± 0.18
M30E	0.075 ± 0.12
M30W	-0.119 ± 0.12
M30S	-0.228 ± 0.1
M30L	-0.149 ± 0.075
M30F	-0.19 ± 0.14
M30A	-0.064 ± 0.1
M30V	-0.137 ± 0.099
M30I	-0.02 ± 0.19
M30D	-0.272 ± 0.12

Variant	abundance fitness
D34L	-0.025 ± 0.097
D34I	-0.463 ± 0.2
D34K	-0.314 ± 0.12
D34C	0.018 ± 0.16
D34G	0.037 ± 0.094
D34P	-0.149 ± 0.18
D34Q	-0.257 ± 0.2
D34V	-0.094 ± 0.099
D34S	-0.146 ± 0.11
D34A	-0.07 ± 0.12
D34W	0.009 ± 0.14
D34H	-0.069 ± 0.18
D34N	-0.091 ± 0.17
D34Y	-0.118 ± 0.15
D34R	-0.145 ± 0.092
D34T	-0.047 ± 0.14
D34F	-0.282 ± 0.14
L33P	-0.404 ± 0.17
L33G	-0.195 ± 0.095
L33N	-0.547 ± 0.27
L33W	0.024 ± 0.11
L33Y	-0.025 ± 0.16
L33E	-0.496 ± 0.12
L33T	0.162 ± 0.12

Variant	abundance fitness
L33S	0.141 ± 0.1
L33D	-1.04 ± 0.24
L33F	0.022 ± 0.18
L33K	-0.103 ± 0.14
L33C	0.026 ± 0.14
L33M	-0.084 ± 0.16
L33A	0.123 ± 0.12
L33Q	-0.114 ± 0.19
D36A	-0.079 ± 0.12
D36F	-0.325 ± 0.19
D36E	0.13 ± 0.17
D36K	0.06 ± 0.18
D36N	0.026 ± 0.2
D36I	-0.245 ± 0.17
D36P	-0.136 ± 0.13
D36S	0.202 ± 0.11
D36L	-0.5 ± 0.12
D36T	0.078 ± 0.22
D36Y	-0.657 ± 0.23
D36Q	-0.05 ± 0.19
D36M	-0.185 ± 0.2
D36G	-0.079 ± 0.1
D36V	-0.052 ± 0.11
